The chains are these.
B1: Tracheary Element Differentiation Inhibitory Factor (TDIF) peptide [modified: hydroxyproline at 4 and 7; hydroxyproline at 4 and 7] [Arabidopsis thaliana] / extracellular domain of A. thaliana TDR (residues 30-642) [modified: … (parent)
chain 1: HEVPSGPNPISN
chain 2: LKFSPQLLSLLSLKTSLSGPPSAFQDWKVPVNGQNDAVWCSWSGVVCDNVTAQVISLDLSHRNLSGRIPIQIRYLSSLLYLNLSGNSLEGSFPTSIFDLTKLTTLDISRNSFDSSFPPGISKLKFLKVFNAFSNNFEGLLPSDVSRLRFLEELNFGGSYFEGEIPAAYGGLQRLKFIHLAGNVLGGKLPPRLGLLTELQHMEIGYNHFNGNIPSEFALLSNLKYFDVSNCSLSGSLPQELGNLSNLETLFLFQNGFTGEIPESYSNLKSLKLLDFSSNQLSGSIPSGFSTLKNLTWLSLISNNLSGEVPEGIGELPELTTLFLWNNNFTGVLPHKLGSNGKLETMDVSNNSFTGTIPSSLCHGNKLYKLILFSNMFEGELPKSLTRCESLWRFRSQNNRLNGTIPIGFGSLRNLTFVDLSNNRFTDQIPADFATAPVLQYLNLSTNFFHRKLPENIWKAPNLQIFSASFSNLIGEIPNYVGCKSFYRIELQGNSLNGTIPWDIGHCEKLLCLNLSQNHLNGIIPWEISTLPSIADVDLSHNLLTGTIPSDFGSSKTITTFNVSYNQLIGPIPSGSFAHLNPSFFSSNEGLCGDLVGKPCNSDRFNAGNADIDG

In one assay the parent is B1. Kind of assay: ITC. To be noted: with extracellular domain of A. thaliana TDR (residues 30-642) [modified: N-glycosylated at N111, N356, N378, N471 and N525 (one GlcNAc visible on each in the struct); parent: 103 nM.
The Kd is the concentration at which binding is half-saturated. As to chain 1 H1R, the dissociation constant (Kd) came out at 0.329 µM.
Still for that read-out and setting: then chain 1 H1A, with 11.8 µM; and chain 1 I10A, with 0.641 µM.
For the variant chain 1 N8A, the Kd was 0.308 µM.
On the same count and under the same terms, then chain 1 N12A, with 4.7 µM.
Same read-out and setting: for chain 1 V3A the value was 1.4 µM.
As to chain 1 G6A, the Kd is 1.44 µM.
Turning to chain 1 G6T, the dissociation constant Kd came to 2.08 µM.
Still for that read-out and setting: then chain 1 H1A E2A V3A, with 252 µM; and chain 1 E2A, with 0.327 µM.
Take chain 1 E2R: the Kd came out at 0.543 µM.

The assay is the same for the next values; noted with them: with extracellular domain of A. thaliana TDR (residues 30-642) [modified: N-glycosylated at N111, N356, N378, N471 and N525 (one GlcNAc visible on each in the struct); parent: 1.
With chain 1 I10A, the ratio to parent worked out at 6.2.
Still for that read-out and setting: then chain 1 N12A, with 45.6; and chain 1 H1A E2A V3A, with 2450.

Staying with this assay, now noted: with Tracheary Element Differentiation Inhibitory Factor (TDIF) peptide [modified: hydroxyproline at 4 and 7, parent: 103 nM.
Take chain 2 W324A: the Kd stood at 0.862 µM.
As to chain 2 F252A, the equilibrium dissociation constant (Kd) turned out to be 0.787 µM.
The same measure, in the same setting: for chain 2 F250A F252A the value was 0.887 µM; for chain 2 Y205A, 1.65 µM; for chain 2 R109A F132A S133A S158A Y159A, 3.24 µM.
With chain 2 S276A, the Kd was determined as 0.455 µM.
Still for that read-out and setting: for chain 2 F250A the value was 0.307 µM; for chain 2 R392A R394A, 0.306 µM.

The same assay, now with this note: with Tracheary Element Differentiation Inhibitory Factor (TDIF) peptide [modified: hydroxyproline at 4 and 7, parent: 1.
Consider chain 2 F252A, for which the ratio to parent stood at 7.6.
The same measure, in the same setting: then chain 2 Y205A, with 16.

The values are drawn from paper PMC5383425, “Differential CLE peptide perception by plant receptors implicated from structural and functional analyses of TDIF-TDR interactions” (PLoS ONE, 2017).
